In US20190338009A1 (ZEALAND PHARMA A S, published 2019):
Square brackets hold non-standard residues; d marks the D form. Aib = CC(C)(N)C(=O)O

T1: human GLP-2 receptor (hGLP2-R) (human, UniProt O95838 1-553)
T1 sequence (looked up): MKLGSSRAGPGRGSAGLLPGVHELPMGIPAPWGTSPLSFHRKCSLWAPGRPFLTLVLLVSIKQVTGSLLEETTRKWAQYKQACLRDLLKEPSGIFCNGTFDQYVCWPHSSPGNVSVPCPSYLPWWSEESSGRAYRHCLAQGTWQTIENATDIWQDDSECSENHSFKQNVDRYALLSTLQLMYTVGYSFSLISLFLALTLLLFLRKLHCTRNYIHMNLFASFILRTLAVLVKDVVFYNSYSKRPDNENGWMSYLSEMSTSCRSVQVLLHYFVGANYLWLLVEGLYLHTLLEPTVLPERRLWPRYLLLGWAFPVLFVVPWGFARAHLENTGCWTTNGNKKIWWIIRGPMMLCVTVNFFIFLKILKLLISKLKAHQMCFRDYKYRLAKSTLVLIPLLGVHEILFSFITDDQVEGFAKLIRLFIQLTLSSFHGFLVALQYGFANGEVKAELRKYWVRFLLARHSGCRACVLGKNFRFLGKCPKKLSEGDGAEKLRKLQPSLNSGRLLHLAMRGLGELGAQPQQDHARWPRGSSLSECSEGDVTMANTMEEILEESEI

B1: Compound 19 (peptide)
peptide: H-H[Aib]EGTFTSELATILDEQAARDFIAWLIAQKITD-OH
SMILES: CC[C@H](C)[C@H](NC(=O)[C@H](CC(C)C)NC(=O)[C@H](Cc1c[nH]c2ccccc12)NC(=O)[C@H](C)NC(=O)[C@@H](NC(=O)[C@H](Cc1ccccc1)NC(=O)[C@H](CC(=O)O)NC(=O)[C@H](CCCNC(=N)N)NC(=O)[C@H](C)NC(=O)[C@H](C)NC(=O)[C@H](CCC(N)=O)NC(=O)[C@H](CCC(=O)O)NC(=O)[C@H](CC(=O)O)NC(=O)[C@H](CC(C)C)NC(=O)[C@@H](NC(=O)[C@@H](NC(=O)[C@H](C)NC(=O)[C@H](CC(C)C)NC(=O)[C@H](CCC(=O)O)NC(=O)[C@H](CO)NC(=O)[C@@H](NC(=O)[C@H](Cc1ccccc1)NC(=O)[C@@H](NC(=O)CNC(=O)[C@H](CCC(=O)O)NC(=O)C(C)(C)NC(=O)[C@@H](N)Cc1c[nH]cn1)[C@@H](C)O)[C@@H](C)O)[C@@H](C)O)[C@@H](C)CC)[C@@H](C)CC)C(=O)N[C@@H](C)C(=O)N[C@@H](CCC(N)=O)C(=O)N[C@@H](CCCCN)C(=O)N[C@H](C(=O)N[C@H](C(=O)N[C@@H](CC(=O)O)C(=O)O)[C@@H](C)O)[C@@H](C)CC
B2: Compound 15 (peptide)
peptide: H-H[Aib]EGTFTSELATILDEQAARDFIAWLIQHKITD-OH
SMILES: CC[C@H](C)[C@H](NC(=O)[C@H](Cc1ccccc1)NC(=O)[C@H](CC(=O)O)NC(=O)[C@H](CCCNC(=N)N)NC(=O)[C@H](C)NC(=O)[C@H](C)NC(=O)[C@H](CCC(N)=O)NC(=O)[C@H](CCC(=O)O)NC(=O)[C@H](CC(=O)O)NC(=O)[C@H](CC(C)C)NC(=O)[C@@H](NC(=O)[C@@H](NC(=O)[C@H](C)NC(=O)[C@H](CC(C)C)NC(=O)[C@H](CCC(=O)O)NC(=O)[C@H](CO)NC(=O)[C@@H](NC(=O)[C@H](Cc1ccccc1)NC(=O)[C@@H](NC(=O)CNC(=O)[C@H](CCC(=O)O)NC(=O)C(C)(C)NC(=O)[C@@H](N)Cc1c[nH]cn1)[C@@H](C)O)[C@@H](C)O)[C@@H](C)O)[C@@H](C)CC)C(=O)N[C@@H](C)C(=O)N[C@@H](Cc1c[nH]c2ccccc12)C(=O)N[C@@H](CC(C)C)C(=O)N[C@H](C(=O)N[C@@H](CCC(N)=O)C(=O)N[C@@H](Cc1c[nH]cn1)C(=O)N[C@@H](CCCCN)C(=O)N[C@H](C(=O)N[C@H](C(=O)N[C@@H](CC(=O)O)C(=O)O)[C@@H](C)O)[C@@H](C)CC)[C@@H](C)CC
B3: Compound 13 (peptide)
peptide: H-H[Aib]EGTFTSELATILDEQAARDFIAWLQAHKITD-OH
SMILES: CC[C@H](C)[C@H](NC(=O)[C@H](Cc1ccccc1)NC(=O)[C@H](CC(=O)O)NC(=O)[C@H](CCCNC(=N)N)NC(=O)[C@H](C)NC(=O)[C@H](C)NC(=O)[C@H](CCC(N)=O)NC(=O)[C@H](CCC(=O)O)NC(=O)[C@H](CC(=O)O)NC(=O)[C@H](CC(C)C)NC(=O)[C@@H](NC(=O)[C@@H](NC(=O)[C@H](C)NC(=O)[C@H](CC(C)C)NC(=O)[C@H](CCC(=O)O)NC(=O)[C@H](CO)NC(=O)[C@@H](NC(=O)[C@H](Cc1ccccc1)NC(=O)[C@@H](NC(=O)CNC(=O)[C@H](CCC(=O)O)NC(=O)C(C)(C)NC(=O)[C@@H](N)Cc1c[nH]cn1)[C@@H](C)O)[C@@H](C)O)[C@@H](C)O)[C@@H](C)CC)C(=O)N[C@@H](C)C(=O)N[C@@H](Cc1c[nH]c2ccccc12)C(=O)N[C@@H](CC(C)C)C(=O)N[C@@H](CCC(N)=O)C(=O)N[C@@H](C)C(=O)N[C@@H](Cc1c[nH]cn1)C(=O)N[C@@H](CCCCN)C(=O)N[C@H](C(=O)N[C@H](C(=O)N[C@@H](CC(=O)O)C(=O)O)[C@@H](C)O)[C@@H](C)CC
B4: Compound 14 (peptide)
peptide: H-H[Aib]EGTFTSELATILDEQAARDFIAWLYAHKITD-OH
SMILES: CC[C@H](C)[C@H](NC(=O)[C@H](Cc1ccccc1)NC(=O)[C@H](CC(=O)O)NC(=O)[C@H](CCCNC(=N)N)NC(=O)[C@H](C)NC(=O)[C@H](C)NC(=O)[C@H](CCC(N)=O)NC(=O)[C@H](CCC(=O)O)NC(=O)[C@H](CC(=O)O)NC(=O)[C@H](CC(C)C)NC(=O)[C@@H](NC(=O)[C@@H](NC(=O)[C@H](C)NC(=O)[C@H](CC(C)C)NC(=O)[C@H](CCC(=O)O)NC(=O)[C@H](CO)NC(=O)[C@@H](NC(=O)[C@H](Cc1ccccc1)NC(=O)[C@@H](NC(=O)CNC(=O)[C@H](CCC(=O)O)NC(=O)C(C)(C)NC(=O)[C@@H](N)Cc1c[nH]cn1)[C@@H](C)O)[C@@H](C)O)[C@@H](C)O)[C@@H](C)CC)C(=O)N[C@@H](C)C(=O)N[C@@H](Cc1c[nH]c2ccccc12)C(=O)N[C@@H](CC(C)C)C(=O)N[C@@H](Cc1ccc(O)cc1)C(=O)N[C@@H](C)C(=O)N[C@@H](Cc1c[nH]cn1)C(=O)N[C@@H](CCCCN)C(=O)N[C@H](C(=O)N[C@H](C(=O)N[C@@H](CC(=O)O)C(=O)O)[C@@H](C)O)[C@@H](C)CC
B5: Compound 16 (peptide)
peptide: H-H[Aib]EGTFTSELATILDEQAARDFIAWLIKHKITD-OH
SMILES: CC[C@H](C)[C@H](NC(=O)[C@H](Cc1ccccc1)NC(=O)[C@H](CC(=O)O)NC(=O)[C@H](CCCNC(=N)N)NC(=O)[C@H](C)NC(=O)[C@H](C)NC(=O)[C@H](CCC(N)=O)NC(=O)[C@H](CCC(=O)O)NC(=O)[C@H](CC(=O)O)NC(=O)[C@H](CC(C)C)NC(=O)[C@@H](NC(=O)[C@@H](NC(=O)[C@H](C)NC(=O)[C@H](CC(C)C)NC(=O)[C@H](CCC(=O)O)NC(=O)[C@H](CO)NC(=O)[C@@H](NC(=O)[C@H](Cc1ccccc1)NC(=O)[C@@H](NC(=O)CNC(=O)[C@H](CCC(=O)O)NC(=O)C(C)(C)NC(=O)[C@@H](N)Cc1c[nH]cn1)[C@@H](C)O)[C@@H](C)O)[C@@H](C)O)[C@@H](C)CC)C(=O)N[C@@H](C)C(=O)N[C@@H](Cc1c[nH]c2ccccc12)C(=O)N[C@@H](CC(C)C)C(=O)N[C@H](C(=O)N[C@@H](CCCCN)C(=O)N[C@@H](Cc1c[nH]cn1)C(=O)N[C@@H](CCCCN)C(=O)N[C@H](C(=O)N[C@H](C(=O)N[C@@H](CC(=O)O)C(=O)O)[C@@H](C)O)[C@@H](C)CC)[C@@H](C)CC
B6: Compound 17 (peptide)
peptide: H-H[Aib]EGTFTSELATILDEQAARDFIAWLIRHKITD-OH
SMILES: CC[C@H](C)[C@H](NC(=O)[C@H](Cc1ccccc1)NC(=O)[C@H](CC(=O)O)NC(=O)[C@H](CCCNC(=N)N)NC(=O)[C@H](C)NC(=O)[C@H](C)NC(=O)[C@H](CCC(N)=O)NC(=O)[C@H](CCC(=O)O)NC(=O)[C@H](CC(=O)O)NC(=O)[C@H](CC(C)C)NC(=O)[C@@H](NC(=O)[C@@H](NC(=O)[C@H](C)NC(=O)[C@H](CC(C)C)NC(=O)[C@H](CCC(=O)O)NC(=O)[C@H](CO)NC(=O)[C@@H](NC(=O)[C@H](Cc1ccccc1)NC(=O)[C@@H](NC(=O)CNC(=O)[C@H](CCC(=O)O)NC(=O)C(C)(C)NC(=O)[C@@H](N)Cc1c[nH]cn1)[C@@H](C)O)[C@@H](C)O)[C@@H](C)O)[C@@H](C)CC)C(=O)N[C@@H](C)C(=O)N[C@@H](Cc1c[nH]c2ccccc12)C(=O)N[C@@H](CC(C)C)C(=O)N[C@H](C(=O)N[C@@H](CCCNC(=N)N)C(=O)N[C@@H](Cc1c[nH]cn1)C(=O)N[C@@H](CCCCN)C(=O)N[C@H](C(=O)N[C@H](C(=O)N[C@@H](CC(=O)O)C(=O)O)[C@@H](C)O)[C@@H](C)CC)[C@@H](C)CC
B7: Compound 18 (peptide)
peptide: H-H[Aib]EGTFTSELATILDEQAARDFIAWLISHKITD-OH
SMILES: CC[C@H](C)[C@H](NC(=O)[C@H](Cc1ccccc1)NC(=O)[C@H](CC(=O)O)NC(=O)[C@H](CCCNC(=N)N)NC(=O)[C@H](C)NC(=O)[C@H](C)NC(=O)[C@H](CCC(N)=O)NC(=O)[C@H](CCC(=O)O)NC(=O)[C@H](CC(=O)O)NC(=O)[C@H](CC(C)C)NC(=O)[C@@H](NC(=O)[C@@H](NC(=O)[C@H](C)NC(=O)[C@H](CC(C)C)NC(=O)[C@H](CCC(=O)O)NC(=O)[C@H](CO)NC(=O)[C@@H](NC(=O)[C@H](Cc1ccccc1)NC(=O)[C@@H](NC(=O)CNC(=O)[C@H](CCC(=O)O)NC(=O)C(C)(C)NC(=O)[C@@H](N)Cc1c[nH]cn1)[C@@H](C)O)[C@@H](C)O)[C@@H](C)O)[C@@H](C)CC)C(=O)N[C@@H](C)C(=O)N[C@@H](Cc1c[nH]c2ccccc12)C(=O)N[C@@H](CC(C)C)C(=O)N[C@H](C(=O)N[C@@H](CO)C(=O)N[C@@H](Cc1c[nH]cn1)C(=O)N[C@@H](CCCCN)C(=O)N[C@H](C(=O)N[C@H](C(=O)N[C@@H](CC(=O)O)C(=O)O)[C@@H](C)O)[C@@H](C)CC)[C@@H](C)CC

Molecular target: human glucagon-like peptide 1 receptor (GLP-1R) (human, UniProt P43220 24-463)
Experiment: cell-based or functional assay

EC50 GLP-1 (nM); cAMP AlphaScreen, HEK293 cells expressing human GLP-1R | Binder
0.005 nM | B1
0.005 nM | B2
0.016 nM | B3
0.021 nM | B4
0.006 nM | B5
0.006 nM | B6
0.006 nM | B7

Molecular target: T1, human GLP-2 receptor (hGLP2-R)
Experiment: cell-based or functional assay

EC50 GLP-2 (nM); cAMP AlphaScreen, HEK293 cells expressing human GLP-2R | Binder
0.15 nM | B1
0.038 nM | B2
0.083 nM | B3
0.049 nM | B4
0.026 nM | B5
0.066 nM | B6
0.054 nM | B7
